From PMC2518714

Molecular target: T1, CD9 (wild type) (human (endogenous in PC3)), P21926
T1 chain: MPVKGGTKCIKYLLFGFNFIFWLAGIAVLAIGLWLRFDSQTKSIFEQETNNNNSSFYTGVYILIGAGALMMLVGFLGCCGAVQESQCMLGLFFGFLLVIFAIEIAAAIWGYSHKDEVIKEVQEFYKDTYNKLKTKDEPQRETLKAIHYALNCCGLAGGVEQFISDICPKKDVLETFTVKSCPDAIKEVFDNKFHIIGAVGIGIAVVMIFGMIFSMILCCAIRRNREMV
Test: single-molecule codiffusion
Details: remark: other sources report otherwise

B1: CD9 (wild type), P21926 1-228 (natural protein)
chain: MPVKGGTKCIKYLLFGFNFIFWLAGIAVLAIGLWLRFDSQTKSIFEQETNNNNSSFYTGVYILIGAGALMMLVGFLGCCGAVQESQCMLGLFFGFLLVIFAIEIAAAIWGYSHKDEVIKEVQEFYKDTYNKLKTKDEPQRETLKAIHYALNCCGLAGGVEQFISDICPKKDVLETFTVKSCPDAIKEVFDNKFHIIGAVGIGIAVVMIFGMIFSMILCCAIRRNREMV
modifications: here or on the partner: palmitoylated (sites not given); palmitoylated (sites not given)
B1 was tested, and the percent of Brownian and mixed trajectories with codiffusing molecules was 15% and the percent of possible pairs dynamically colocalized was 5%.
